{"source": "paper doi:10.1101/2020.06.01.127704", "about": "(bioRxiv, 2020)", "molecular_target": "the molecule itself", "assay": "cryo-EM structure"}
{"protein": "full-length human excitatory amino acid transporter 3 with two potential glycosylation sites mutated (N178T and N195T) (natural protein, UniProt P43005 1-524, looked up) MGKPARKGCEWKRFLKNNWVLLSTVAAVVLGITTGVLVREHSNLSTLEKFYFAFPGEILMRMLKLIILPLIISSMITGVAALDSNVSGKIGLRAVVYYFCTTLIAVILGIVLVVSIKPGVTQKVGEIARTGSTPEVSTVDAMLDLIRNMFPENLVQACFQQYKTKREEVKPPSDPEMTMTEESFTAVMTTAISKTKTKEYKIVGMYSDGINVLGLIVFCLVFGLVIGKMGEKGQILVDFFNALSDATMKIVQIIMCYMPLGILFLIAGKIIEVEDWEIFRKLGLYMATVLTGLAIHSIVILPLIYFIVVRKNPFRFAMGMAQALLTALMISSSSATLPVTFRCAEENNQVDKRITRFVLPVGATINMDGTALYEAVAAVFIAQLNDLDLGIGQIITISITATSASIGAAGVPQAGLVTMVIVLSAVGLPAEDVTLIIAVDWLLDRFRTMVNVLGDAFGTGIVEKLSKKELEQMDVSSEVNIVNPFALESTILDNEDSDTKKSYVNGGFAVDKSDTISFTQTSQF", "values": [{"measurement": "stoichiometry N", "value": 3}]}
